Measured values taken from patent publication US20230242675A1 (SHANGHAI EPIMAB BIOTHERAPEUTICS, published 2023).

T1: human TGFβ2 (human, UniProt P61812 303-414)
T1 construct: also called TGFβ isoform 2; TGFβ2 (Cat. No. CJ79, Novoprotein)
T1 sequence (looked up): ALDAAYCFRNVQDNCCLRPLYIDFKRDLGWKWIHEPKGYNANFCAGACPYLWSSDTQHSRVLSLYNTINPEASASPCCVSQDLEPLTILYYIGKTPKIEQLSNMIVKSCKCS

B1: EM0005-mAb86 scFv (scFv)
scFv: QVQLQQSGAELVRPGSSVKMSCKTSGYTFTTYGINWVKQRPGQGLEWIGYIYIGNGYTEYNEKFKGKATLTSDPSSRTAYMQLSSLTSEDSAIYFCARDLMVIAPKTMDYWGQGTSVTVSSGGGGSGGGGSGGGGSDIQMNQSHKFMSTSVGDRVSITCKASQDVGTAVAWYQQKPGQSPKLLIYWASTRHTGVPDRFTGGGSGTDFTLTISNVQSEDLADYFCQQYSSYPYTFGGGTKLEMK
notes: Tested as bacterial culture supernatant (detected with anti-c-myc antibody; tags of the pCAN phagemid not spelled out for library clones) and as scFv-displaying phage in FACS; also called 3A3
B2: EM0005-mAb90 scFv (scFv)
scFv: QVQLKQSGAELVRPGSSVKMSCKTSGYTFTSHSINWVKQRPGQGLEWIGYMYIGNGYTEYNEKFKGKATLTSDTSSTTAYMQLSSLTSEDSAIYFCAKITPVVAPYVMDYWGQGTSVTVSSGGGGSGGGGSGGGGSDIVMTQTHKFMSTSVGDRVSITCKASQDVGTAVAWYQQKPGQSPKLLIYWASTRHTGVPDRFTGSGSGTDFTLTISNVQSEDLADYFCQQYSSYPYTFGGGTKLELK
notes: Tested as bacterial culture supernatant and as scFv-displaying phage in FACS; tags of the pCAN phagemid not spelled out for library clones; also called 6C11
B3: FIT1012-3a TGFβ/PD-L1 bispecific binding protein (bispecific antibody, human IgG1, kappa)
heavy: not shown
chain: TIPPHVQKSVNNDMIVTDNNGAVKFPQLCKFCDVRFSTCDNQKSCMSNCSITSICEKPQEVCVAVWRKNDENITLETVCHDPKLPYHDFILEDAASPKCIMKEKKKPGETFFMCSCSSDECNDNIIFSEEYNTSNPDASTKGPSVFPLAPSSKSTSGGTAALGCLVKDYFPEPVTVSWNSGALTSGVHTFPAVLQSSGLYSLSSVVTVPSSSLGTQTYICNVNHKPSNTKVDKKVEPKSC
light: DIQMTQSPSSVSASVGDRVTITCKASQDVGTAVAWYQQKPGKAPKLLIYWASTRHTGVPDRFTGSGSGTDFTLTISSLQPEDFATYYCQQYSSYPYTFGGGTKVEIKRTVAAPSVFIFPPSDEQLKSGTASVVCLLNNFYPREAKVQWKVDNALQSGNSQESVTEQDSKDSTYSLSSTLTLSKADYEKHKVYACEVTHQGLSSPVTKSFNRGEC
notes: Six-chain protein; anti-PD-L1 moiety from HuEM0005-86-6 with G55A; four TGFβR2(ECD) traps
B4: FIT1012-4a TGFβ/PD-L1 bispecific binding protein (bispecific antibody, human IgG1, kappa)
heavy: not shown
chain: B3 chain
light: not shown
notes: Six-chain protein; anti-PD-L1 moiety from HuEM0005-87-1; four TGFβR2(ECD) traps
B5: EM0005-mAb87 scFv (scFv)
scFv: EVQLQQSGPELVKPGASVKISCKASGYSFTDYYINWVKQSPEKSLEWIGETIPNTGGTTYNQKFKAKATLTVDKSSSTAYMQLKSLTSEDSAVYYCARYQSGSPFAYWGQGTPVTVSSGGGGSGGGGSGGGGSDIVMTQSQKFMSTTVGDRVSITCKASQNVGTAVAWYQQKPGQSPKLLIYSASNRYTGVPDRFTGSGSGTDFTLTISNMQSEDLADYFCQQHYSTPYTFGGGTKLEIK
notes: Tested as bacterial culture supernatant and as scFv-displaying phage in FACS; tags of the pCAN phagemid not spelled out for library clones; also called 4E8

Assays:
[1] = molecular target: T2, human PD-L1/His fusion protein (human, UniProt Q9NZQ7 19-239); experiment: BLI Octet RED96, single concentration of human PD-L1-his
Method: Briefly, antibodies were characterized for affinities and binding kinetics by biolayer interferometry (BLI) using an Octet® RED96 sensor device (Pall ForteBio LLC). Antibodies were captured by anti-hIgG Fc Capture (AHC) Biosensors (Pall) at a concentration of 100 nM for 30 seconds. Sensors were then dipped into running buffer (1×, pH7.2, PBS, 0.05% Tween 20, 0.1% BSA) for 60 seconds to check baseline. Binding was measured by dipping sensors into a single concentration of recombinant human PD-L1-his protein. Dissociation was followed by dipping sensors into running buffer for 1200 seconds. The association and dissociation curves were fitted to a 1:1 Langmuir binding model using the manufacturer's data analysis software (ForteBio Data Analysis software, Pall ForteBio LLC).

[2] = molecular target: T3, cynomolgus (cyno) PD-L1/His fusion protein (cynomolgus, UniProt G7PSE7 19-239); experiment: ELISA, scFv supernatant on cynomolgus PD-L1
T3 construct: also called cynomolgus PD-L1; not shown: His tag

[3] = molecular target: human PD-L1/Fc Fusion Protein (human); experiment: ELISA, scFv supernatant on coated human PD-L1/Fc
Method: Two hundred (200) single bacterial clones from each group of the third panning round were isolated and grown in culture to express a single scFv monoclonal antibodies (mAbs). The scFv mAbs were expressed in the bacterial culture supernatants, which were primarily screened by ELISA. […] 20 ng of human PD-L1/Fc protein in 100 μL PBS, pH 7.4, were directly coated in each well of a 96-well plate. An HRP-linked anti-c-myc antibody (Cat. No. Ab1261, Abcam) and TMB reagent were used to detect and develop the ELISA signal, which was read using a plate reader (SpectraMax® Plus 384; Molecular Devices) at a wavelength of 450 nm.

[4] = molecular target: T4, human PD-L1 on the cell surface (CHO-K1 cells stably expressing human PD-L1) (human, UniProt Q9NZQ7 19-290); experiment: FACS, scFv-phage on CHO-K1/PD-L1 cells
T4 construct: whole, on cells; Also used here for PD-L1 on the monocyte-derived dendritic cells of the MLR assay (functional rows); also called CHO-K1/PD-L1; CHOK1-PD-L1
Method: After characterization of ability to bind PD-L1 in ELISA and RBA ELISA, the PD-L1-binding positive scFv clones were sequenced. […] Briefly, 2×10⁵ cells of the CHO-K1/PD-L1 cell line stably expressing huPD-L1 described above were added to round-bottom wells of a 96-well plate (Cat. No. 3799, Corning). A phage supernatant from an overnight culture that had been rescued by hyper phage was added. The mixture of CHO-K1/PD-L1 cells and phage supernatant in each well was diluted with 50 μl of FACS buffer (PBS with 2% FBS). The anti-PD-L1 scFv-phages were detected with murine anti-M13 phage antibody (Cat. No. 11973-MM05, Sino biological) and then with Donkey anti-Mouse IgG (H+L) Highly Cross-Adsorbed, Alexa Fluor® 488 conjugate, secondary antibody (Cat. No. A21202, Invitrogen). Cell fluorescence was monitored using a flow cytometer.

[5] = molecular target: T2, human PD-L1/His fusion protein; experiment: RBA ELISA: coated PD-L1/His, competitor biotinylated PD-1/Fc
Method: Anti-PD-L1 scFv supernatants were tested for ability to block PD-L1/PD-1 interaction. […] The mixtures were added to individual wells and incubated at room temperature for 30 minutes. […] Bound signal was developed by Streptavidin-HRP (Cat. No. S2468, Sigma) and read by a plate reader at a wavelength of 450 nm. A low signal, as with the positive control, indicated blocking activity.

[6] = molecular target: T5, biotinylated human PD-L1 protein (ACROBiosystems, H82E5) (human, UniProt Q9NZQ7 19-238, biotinylated (site not stated)); experiment: dual-binding ELISA: human TGFβ3 coated, 5 nM binding protein bound to it, biotinylated human PD-L1 titrated 0.0006-10 nM (axis labelled Ab (nM)), streptavidin-HRP, OD450; the EC50 is of the titrated PD-L1
T5 construct: also called biotinylated PD-L1
Method: (§1) Briefly, ELISA plates were incubated overnight at 4° C. with 100 μl of a human TGFβ isoform diluted in PBS buffer, pH 7.4, at 1 μg/ml, to allow the human TGFβ isoform to coat (adsorb to) the surface of the wells. Plates were washed three times in washing buffer (PBS containing 0.05% Tween 20) and blocked for 1 hour at 37° C. with 200 μl per well blocking buffer (1% BSA in PBS containing 0.05% Tween 20). […] The wells were washed four times with washing buffer, and Streptavidin-HRP (Merck, RABHRP3) was diluted 1:10000 and added to the wells at 100 μl per well. The plates were incubated for 1 hour at 37° C. and washed four times in washing buffer. 100 μl of tetramethylbenzidine (TMB) chromogenic solution were added per well.

[7] = molecular target: T2, human PD-L1/His fusion protein; experiment: BLI Octet Red, binding protein on AHC sensor, PD-L1-his in solution
Method: Sensors were then dipped into running buffer (1×pH 7.2 PBS, 0.05% Tween 20, 0.1% BSA) for 60 seconds to check baseline. Binding was measured by dipping sensors into a series diluted concentration of recombinant human PD-L1-his protein. Dissociation was followed by dipping sensors into running buffer for 1200 seconds. The association and dissociation curves were fitted to a 1:1 Langmuir binding model using ForteBio Data Analysis software (Pall). The equilibrium dissociation constant KD (M) of the reaction between antibodies and related target proteins was then calculated from the kinetic rate constants using the formula KD=koff/kₒₙ.

human TGFβ1 = molecular target: T6, human TGFβ1 (human, UniProt P01137 279-390); experiment: ELISA: human TGFβ1 coated (1 µg/ml), binding protein titrated 0.0006-10 nM, anti-human IgG Fc-HRP, OD450
T6 construct: also called TGFβ isoform 1; TGFβ1 (Cat. No. CA59, Novoprotein)
Method: (§2) Accordingly, each of the wells of the ELISA microplates provided a reaction mixture to test the ability of a particular binding protein at a particular concentration to bind to a particular TGFβ isoform. […] Plates were washed three times in washing buffer (PBS containing 0.05% Tween 20) and blocked for 1 hour at 37° C. with 200 μl per well of blocking buffer (1% BSA in PBS containing 0.05% Tween 20). […] The wells containing the various binding mixtures were incubated at 37° C. for 1 hour to permit binding to TGFβ protein on the surface of the wells. Thereafter, the wells were washed four times with washing buffer, and anti-human IgG Fc HRP (Sigma, Catalog No. A0170) was diluted 1:10000 and added to the wells at 100 μl per well to detect binding protein that was bound to TGFβ protein present on the surface of a well. The plates were incubated for 1 hour at 37° C. and washed four times with washing buffer. 100 μl of tetramethylbenzidine (TMB) chromogenic solution were added per well. Following color development, the reaction was stopped with 1 N HCl, and absorbance at 450 nm (OD450) was measured on a VARIOSKAN™ LUX microplate reader (Thermo Scientific™).

human TGFβ2 = molecular target: T1, human TGFβ2; experiment: ELISA: human TGFβ2 coated (1 µg/ml), binding protein titrated 0.0006-10 nM, anti-human IgG Fc-HRP, OD450
Method: as §2

[8] = molecular target: T5, biotinylated human PD-L1 protein …; experiment: dual-binding ELISA: human TGFβ2 coated, 5 nM binding protein bound to it, biotinylated human PD-L1 titrated 0.0006-10 nM (axis labelled Ab (nM)), streptavidin-HRP, OD450; the EC50 is of the titrated PD-L1
Method: as §1

T5 sequence (Q9NZQ7 19-238 limits assumed): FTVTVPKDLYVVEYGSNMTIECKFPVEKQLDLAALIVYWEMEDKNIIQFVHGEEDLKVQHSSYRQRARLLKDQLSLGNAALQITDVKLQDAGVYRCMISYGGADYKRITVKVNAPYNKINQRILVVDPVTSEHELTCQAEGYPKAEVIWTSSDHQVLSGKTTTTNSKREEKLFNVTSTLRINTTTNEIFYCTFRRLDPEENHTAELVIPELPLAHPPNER
T4 sequence (Q9NZQ7 19-290): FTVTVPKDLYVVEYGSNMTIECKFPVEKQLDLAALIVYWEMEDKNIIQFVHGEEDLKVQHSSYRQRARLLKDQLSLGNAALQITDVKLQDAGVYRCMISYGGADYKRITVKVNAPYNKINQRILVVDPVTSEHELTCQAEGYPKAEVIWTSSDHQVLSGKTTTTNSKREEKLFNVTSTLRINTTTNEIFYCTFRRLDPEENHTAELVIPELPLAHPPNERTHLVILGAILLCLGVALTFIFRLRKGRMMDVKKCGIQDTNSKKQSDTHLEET
T2 sequence (Q9NZQ7 19-239 limits assumed): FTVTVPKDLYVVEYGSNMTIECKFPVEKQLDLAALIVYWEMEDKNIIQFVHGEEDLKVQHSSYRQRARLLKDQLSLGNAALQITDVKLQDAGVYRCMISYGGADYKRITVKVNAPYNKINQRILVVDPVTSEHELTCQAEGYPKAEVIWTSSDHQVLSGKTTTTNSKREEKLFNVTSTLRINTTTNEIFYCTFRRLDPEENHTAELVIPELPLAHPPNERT
T3 sequence (G7PSE7 entry or part of it): as the sequence (Q9NZQ7 19-239 limits assumed) above, with A33T, A34S, S62N, R68Q, Q82R, F173L, T185A, T192I, H215L counted along it
Sequence of human PD-L1/Fc Fusion Protein (human) (chain, as listed by the source limits assumed): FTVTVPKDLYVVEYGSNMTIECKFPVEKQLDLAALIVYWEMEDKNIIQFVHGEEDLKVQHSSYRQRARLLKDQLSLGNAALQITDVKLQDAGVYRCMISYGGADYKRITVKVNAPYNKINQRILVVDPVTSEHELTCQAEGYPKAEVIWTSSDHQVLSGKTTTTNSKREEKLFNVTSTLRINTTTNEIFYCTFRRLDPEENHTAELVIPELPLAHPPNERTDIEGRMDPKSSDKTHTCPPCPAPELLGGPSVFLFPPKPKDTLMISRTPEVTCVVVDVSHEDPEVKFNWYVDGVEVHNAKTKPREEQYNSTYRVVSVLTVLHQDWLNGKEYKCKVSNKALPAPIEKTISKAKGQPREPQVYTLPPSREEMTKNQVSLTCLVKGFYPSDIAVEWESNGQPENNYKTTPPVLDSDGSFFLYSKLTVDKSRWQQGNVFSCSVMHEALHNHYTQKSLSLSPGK
T6 sequence (P01137 279-390 limits assumed): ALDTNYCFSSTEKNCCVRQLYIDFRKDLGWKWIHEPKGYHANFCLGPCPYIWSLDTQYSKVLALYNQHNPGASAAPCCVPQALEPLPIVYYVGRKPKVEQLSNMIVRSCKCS

Binder | koff [1] [s⁻¹] | EC50 [2] [nM] | EC50 [3] [nM] | Binding to CHOK1-PD-L1 (X Geo Mean) [4] | RBA (% inhibition) [5] [%] | EC50 [6] [nM] | Kd [7] [nM] | koff [7] [s⁻¹] | kon [7] [M⁻¹ s⁻¹] | EC50 (read off the curve) (human TGFβ1) [nM] | EC50 (human TGFβ2) [nM] | EC50 [8] [nM] | EC50 (human TGFβ1) [nM]
B1 | 0.000197 | 4 | 1.19 | 27.6 | 100 |  |  |  |  |  |  |  | 
B2 | 0.000232 | 4 |  | 36.6 | 100 |  |  |  |  |  |  |  | 
B3 |  |  |  |  |  | 0.205 | 0.609 | 0.000344 | 564000 | ~0.4 | 0.525 | 0.205 | 
B4 |  |  |  |  |  | 0.114 | 1.3 |  |  |  | 0.288 | 0.114 | 0.29
B5 | 0.000206 | 4 | 3.02 | 49.7 | 99.8 |  |  |  |  |  |  |  | 
